{"source": "patent US20250136680A1", "about": "(SHANGHAI QILU PHARMACEUTICAL RESEARCH AND DEVELOPMENT CENTRE, published 2025)", "binders": {"B1": {"name": "Bispecific antibody 2 (bispecific antibody, IgG1)", "heavy": "not shown", "chain": "DKTHTCPPCPAPEAAGGPSVFLFPPKPKDTLMISRTPEVTCVVVDVSHEDPEVKFNWYVDGVEVHNAKTKPREEQYNSTYRVVSVLTVLHQDWLNGKEYKCKVSNKALPAPIEKTISKAKGQPREPQVCTLPPSRDELTKNQVSLSCAVKGFYPSDIAVEWESNGQPENNYKTTPPVLDSDGSFFLVSKLTVDKSRWQQGNVFSCSVMHEALHNRYTQKSLSLSPGK", "light": "EIVLTQSPATLSLSPGERATLSCRASQSINNNLHWYQQKPGQAPRLLIKYVSQSISGIPARFSGSGSGTDFTLTISSLEPEDFAVYYCQQTNAWPLTFGGGTKLEIKRTVAAPSVFIFPPSDEQLKSGTASVVCLLNNFYPREAKVQWKVDNALQSGNSQESVTEQDSKDSTYSLSSTLTLSKADYEKHKVYACEVTHQGLSSPVTKSFNRGEC", "notes": "Knob heavy chain: DLL3 VH-CH1-(G4S)3-CD3 scFv-EPKSS-IgG1 Fc (S354C, T366W, L234A/L235A); Hole chain: Fc only (Y349C, T366S, L368A, Y407V, H435R); Light chain: that of H2-39E2D11-NA; also called anti-CD3-DLL3 bispecific antibody"}}, "key": {"[1]": {"biological_target": "T1, human DLL3 (hDLL3) expressed on tumor cells (human, UniProt Q9NYJ7 27-618)", "T1 sequence (looked up)": "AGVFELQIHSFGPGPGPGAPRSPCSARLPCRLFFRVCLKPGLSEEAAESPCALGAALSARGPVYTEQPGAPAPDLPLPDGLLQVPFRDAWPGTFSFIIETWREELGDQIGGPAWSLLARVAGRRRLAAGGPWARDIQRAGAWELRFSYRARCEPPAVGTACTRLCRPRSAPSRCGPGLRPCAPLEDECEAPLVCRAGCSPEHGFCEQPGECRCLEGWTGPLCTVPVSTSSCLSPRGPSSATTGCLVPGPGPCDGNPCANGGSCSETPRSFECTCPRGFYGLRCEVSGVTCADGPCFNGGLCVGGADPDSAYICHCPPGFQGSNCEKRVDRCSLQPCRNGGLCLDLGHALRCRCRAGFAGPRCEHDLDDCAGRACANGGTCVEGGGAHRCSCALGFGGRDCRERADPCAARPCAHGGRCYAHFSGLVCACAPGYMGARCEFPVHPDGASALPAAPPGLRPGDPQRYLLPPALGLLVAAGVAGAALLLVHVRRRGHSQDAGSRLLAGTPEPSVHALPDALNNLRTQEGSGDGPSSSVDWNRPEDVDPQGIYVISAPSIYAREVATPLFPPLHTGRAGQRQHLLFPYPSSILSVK", "experiment": "cell-based or functional assay"}, "[2]": {"biological_target": "T1, human DLL3 (hDLL3) expressed on tumor …", "experiment": "flow cytometry (FACS) on SHP-77 cells expressing hDLL3"}, "[3]": {"biological_target": "T2, human CD3 (hCD3) naturally expressed on Jurkat cells (human, UniProt P07766 23-207)", "T2 construct": "whole, on cells; on the cells it is part of the whole TCR/CD3 complex; also called Jurkat cell line", "T2 sequence (P07766 23-207)": "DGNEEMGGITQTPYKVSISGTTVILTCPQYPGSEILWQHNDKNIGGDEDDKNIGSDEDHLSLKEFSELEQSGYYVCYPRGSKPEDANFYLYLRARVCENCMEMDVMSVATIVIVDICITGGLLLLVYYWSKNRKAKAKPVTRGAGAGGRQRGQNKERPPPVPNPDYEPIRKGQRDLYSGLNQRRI", "experiment": "flow cytometry (FACS) on Jurkat cells naturally expressing hCD3"}, "[4]": {"biological_target": "human CD3 (purchased from Acro, Cat. No. CDD-H52W1) (human, UniProt P07766 23-126)", "sequence (P07766 23-126)": "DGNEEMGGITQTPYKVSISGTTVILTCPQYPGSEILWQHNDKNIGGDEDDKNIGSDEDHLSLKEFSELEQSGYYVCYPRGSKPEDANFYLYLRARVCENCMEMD", "experiment": "SPR (Biacore 8K), CD3 immobilised directly on CM5, bispecific as analyte, 1:1 Langmuir fit"}, "[5]": {"biological_target": "T3, cynomolgus CD3 (purchased from Acro, Cat. No. CDD-C52W4) (cynomolgus, UniProt Q95LI5 22-117)", "T3 sequence (looked up)": "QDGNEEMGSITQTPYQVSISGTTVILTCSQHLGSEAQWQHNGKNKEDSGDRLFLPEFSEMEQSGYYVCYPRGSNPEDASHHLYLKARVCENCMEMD", "experiment": "SPR (Biacore 8K), CD3 immobilised directly on CM5, bispecific as analyte, 1:1 Langmuir fit"}, "[6]": {"biological_target": "T4, human DLL3 (purchased from Kaixia, Cat. No DLL-HM103) (human, UniProt Q9NYJ7 27-492, limits assumed)", "T4 construct": "Bought recombinant protein; also called human DLL3 protein", "T4 sequence (looked up)": "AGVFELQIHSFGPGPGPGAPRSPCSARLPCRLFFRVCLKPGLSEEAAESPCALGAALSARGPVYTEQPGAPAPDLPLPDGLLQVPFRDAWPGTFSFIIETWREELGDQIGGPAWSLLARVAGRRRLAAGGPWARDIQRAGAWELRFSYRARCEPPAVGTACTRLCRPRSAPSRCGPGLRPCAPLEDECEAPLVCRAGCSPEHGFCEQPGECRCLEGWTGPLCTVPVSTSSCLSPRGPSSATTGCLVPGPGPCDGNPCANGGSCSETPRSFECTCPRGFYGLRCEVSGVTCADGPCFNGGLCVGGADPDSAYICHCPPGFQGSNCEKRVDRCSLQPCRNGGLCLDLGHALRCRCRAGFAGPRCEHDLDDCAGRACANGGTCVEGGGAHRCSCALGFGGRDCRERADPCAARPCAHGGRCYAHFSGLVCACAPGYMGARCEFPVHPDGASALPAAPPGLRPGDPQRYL", "experiment": "SPR (Biacore 8K), bispecific captured by anti-human Fc on CM5, DLL3 as analyte, 1:1 Langmuir fit"}, "[7]": {"biological_target": "T5, cynomolgus DLL3 (purchased from Kaixia, Cat. No. DLL-RM103) (cynomolgus, UniProt A0A2K5WSR1 27-490)", "T5 construct": "Bought recombinant protein", "T5 sequence": "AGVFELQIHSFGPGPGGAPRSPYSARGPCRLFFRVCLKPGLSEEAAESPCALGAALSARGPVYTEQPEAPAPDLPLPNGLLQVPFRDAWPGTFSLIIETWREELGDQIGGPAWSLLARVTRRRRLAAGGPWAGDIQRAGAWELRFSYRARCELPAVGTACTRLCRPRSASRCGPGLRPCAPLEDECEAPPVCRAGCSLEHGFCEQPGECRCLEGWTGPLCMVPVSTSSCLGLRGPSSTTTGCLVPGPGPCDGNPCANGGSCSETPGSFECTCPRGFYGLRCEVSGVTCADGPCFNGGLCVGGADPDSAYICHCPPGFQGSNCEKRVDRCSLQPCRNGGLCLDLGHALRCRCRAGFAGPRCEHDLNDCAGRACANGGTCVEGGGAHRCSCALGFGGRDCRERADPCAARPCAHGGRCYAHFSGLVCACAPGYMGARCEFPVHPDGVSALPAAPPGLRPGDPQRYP", "experiment": "SPR (Biacore 8K), bispecific captured by anti-human Fc on CM5, DLL3 as analyte, 1:1 Langmuir fit"}}, "data": [{"binder": "B1", "values": [{"measurement": "TDCC EC50 (nM), NCI-H82 cell line", "setting": "[1]", "value": 80.2, "unit": "nM"}, {"measurement": "TDCC EC50 (nM), SHP-77 cell line", "setting": "[1]", "value": 136, "unit": "nM"}, {"measurement": "EC50", "setting": "[2]", "value": 0.00311, "unit": "µM"}, {"measurement": "EC50", "setting": "[3]", "value": 0.0579, "unit": "µM"}, {"measurement": "Kd", "setting": "[4]", "value": 0.00909, "unit": "µM"}, {"measurement": "koff", "setting": "[4]", "value": 0.00414, "unit": "s⁻¹"}, {"measurement": "Kd", "setting": "[5]", "value": 0.0111, "unit": "µM"}, {"measurement": "koff", "setting": "[5]", "value": 0.00405, "unit": "s⁻¹"}, {"measurement": "Kd", "setting": "[6]", "value": 0.000647, "unit": "µM"}, {"measurement": "koff", "setting": "[6]", "value": "7.92e-05", "unit": "s⁻¹"}, {"measurement": "kon", "setting": "[6]", "value": 122000, "unit": "M⁻¹ s⁻¹"}, {"measurement": "Kd", "setting": "[7]", "value": 0.000887, "unit": "µM"}, {"measurement": "koff", "setting": "[7]", "value": "8.6e-05", "unit": "s⁻¹"}, {"measurement": "kon", "setting": "[7]", "value": 97000, "unit": "M⁻¹ s⁻¹"}]}]}
